Source: US20190031771A1 (University of Pennsylvania, published 2019)

B1: scFv 1-432 (scFv, V domains shown)
VH: QVQLVQSGAEVKKPLSSVKVSCKASGGTFNMYDINWVRQAPGQGLEWMGGIVPILGVTNYAQNFQGRLTITADKSTSTAYMELSSLRSEDTAVYYCARGVAAGWNAFDVWGQGTMVTVSA
VL: ELVLTQPPSMSVVPGQTARITCGGDNIGSKSVHWYQQKPGQAPVLVVNDDTERPSGIPDRFSGSNSGNTATLVISRVGAGDEADYFCQVWDSRSDHQVFGGGTKLTVL
B2: scFv 1-413 (scFv, V domains shown)
VH: QVQLVQSGSEVKKPGSSVKVSCKASGGTFSSHTLSWVRQAPGQGLEWMGEIIPILDRVKYSQNFQGRVTITADKSTNTTYMELSSVRSEDTAVYYCVSNGWSNFDFWGQGTLVTVSP
VL: ELELTQPPSVSVSPGQTARITCSGGALPKHYVYWYQQKPGQAPAVVIYKDTERPSGIPERFSGSTSGATVTLTISGVQADDDAVYFCQSVDSNDTSWIFGGGTKLTVL
B3: scFv 1-418 (scFv, V domains shown)
VH: QVQLVQSGSEVKKPGSSVKVSCKASGGTFSSHTVSWVRQAPGQGLEWMGEIIPILDRVNYAENFQGRVTITADKSTNTTYMDLSSLRSEDTAVYYCTSNGWSNFDFWGQGTLVTVSS
VL: ELVLTQPPSVSVSPGQTARITCSGGALPKHYAYWYQQKPGQAPAVVIYKDTERPSGIPERFSGSTSGTTVTLTISGVQADDDAVYFCQSVDSNDTSWIFGGGTKLTVL
B4: scFv 1-415 (scFv, V domains shown)
VH: QVQLQESGGGVVQPGRSLRLSCAASGFTFRNYAMHWVRQAPGKGLEWVAVISYDGGKEYYADSVKGRFTISRDNSKNTLYLQMNSLRAEDTAVYYCARDTFSYYDFWRAFDYWGQGTLVTVSS
VL: ELELTQPPSVSGSPGQSITISCTGTSSDVGGYNYVSWYQQHPGKAPKLMIYEVSNRPSGVSNRFSGSKSGNTASLTISGLQAEDEADYYCSSYTSSSTVVFGGGTKLTVL
B5: scFv 1-437 (scFv, V domains shown)
VH: QVQLVQSGGGLVKPGGSLRLSCAASGFIFSNYIMNWVRQAPGKGLEWVSSISSSGSYIYYADSVKGRFTISRDNAKNSMYLQMNSLRGEDTAVYYCAAAYDFWSGYYFWGQGTTVTVSS
VL: ELALTQPPSVSGSPGQSITISCTGTSSDVGGYNYVSWYQQHPGKAPKLMIYEVSNRPSGVSNRFSGSKSGNTASLTISGLQAEDEADYYCSSYTSSTPYVFGTGTKVTVL
B6: scFv 1-450 (scFv, V domains shown)
VH: QVQLVQSGAEVKKPGSSMNVSCKASGGTFSRHTINWVRQAPGQGLEWMGSIIPILGITNYAQNFQGRLTFSADKSTNTAYVELSGLRSEDTAVYYCASGDYYYDMAVWGQGTTVAVTS
VL: ELVLTQPPSVSVSPGQTARITCSGDALPKQYAYWYQQKPGQAPVLVIYKDSERPSGIPERFSGSSSGTTATLTISGVQAEDEADYYCQSAYSSGTVVFGGGTELTVL
B7: scFv 1-401 (scFv, V domains shown)
VH: QVQLVQSGAELKKPGSSVKVSCKASGGAFTMYTINWVRQAPGRGLEWMGRIIPILGITDYAQKFQGRGTITADKSTSTAYLELSGLTSEDTAVYYCAREFSGGNYFDFWGQGTLVTVSS
VL: ELVLTQPPSVSVAPGKTARMTCGGNNIGGYSVHWYQQKPGQAPVLVVYHDSDRPSGIPERFTGSNSGNMATLTISRVEAGDEADYYCQVWDSSNDHSVFGGGTELTVL
B8: scFv 1-458 (scFv, V domains shown)
VH: QVQLVQSGAELKKPGSSVKVSCKASGGAFTMYTINWVRQAPGRGLEWMGRIIPILGITDYAQKFQGRGTITADKSTSTAYLELSGLTSEDTAVYYCAREFSGGNYFDFWGQGTLVTVSS
VL: ELVLTQPPSVSVAPGKTARIPCGGNNIGGKSVHWYQQRPGQAPVLVVYSDSVRPSGIPERFSGSNSGNTATLTISRVEAGDEADYYCQVWDRSSDHVVFGGGTQLTVL
B9: scFv 1-451 (scFv, V domains shown)
VH: QVQLVQSGGGLVQPGRSLRLSCAASGFIFDDYAMHWVRQAPGKGLEWVSGISWNSGSIGYADSVKGRFTISRDNAKNSLYLQMNSLRAEDTALYYCAKDPNSLYRSGSFDYWGQGTLVTVSS
VL: not shown
B10: scFv z1-201 (scFv, V domains shown)
VH: QVQLVQFGGGLVQPGRSLRLSCAASGFIFDDYAMHWVRQAPGKGLEWVSGISWNSGSIGYADSVKGRFTISRDNAKNSLYLQMNSLRAEDTALYYCAKDPNSLYRSGSFDYWGQGTLVTVSS
VL: not shown
B11: scFv 1-440 (scFv, V domains shown)
VH: EVQLLESGGGLVQPGRSLRLSCAASGFIFDDYAMHWVRQAPGKGLEWVSGISWNSGSIGYADSVKGRFTISRDNAKNSLYLQMNSLRAEDTALYYCAKDPNSLYRSGSFDYWGQGTLVTVSS
VL: ELQMTQSPSSLSASVGDRVTITCRASQSISSYLNWYQQKPGKAPKLLIYAASSLESGVPSRFSGSGSGTDFTLTISSLQPEDFASYYCQQSYSTPFTFGPGTKVDIK
B12: scFv 1-441 (scFv, V domains shown)
VH: QVQLQESGGGVVQPGRSLRLSCTDSGFTFSRYAMHWVRQAPGKGLEWVAGISYDGSYEYYADSVKGRFTISRDNSKNTLYVQMNSLRGEDTAVYYCARDLRGGEDYWGQGTLVTVSS
VL: ELVVTQPPSVSAAPGQKVTISCSGSTSNIGNNYVSWYQQFPGTAPKLLIYDNNKRPSGIPDRFSGSKSGTSATLGITGLQTGDEADYYCGTWDSSLSAVVFGGGTKVTVL
B13: scFv 1-423 (scFv, V domains shown)
VH: QVQLVQSGAEVKRPGSSVKVSCKASGGTFSSYTISWVRQAPGQGLEWMGSIIPVLDVTSYAQQFQGRVTITADKSTKTAYMDLSSLTFEDTALYFCSIGRYTYGHFDTWGQGTQVTVSS
VL: ELVLTQPPSVSVAPGKTARVTCGGGNIGDKAVHWYQQRPGQAPVLVVFGDSARPSGIPERFSGSNSGNTATLTISRVEVGDEADYYCQVWDSNSDHQVFGGGTKLTVL
B14: scFv 1-417 (scFv, V domains shown)
VH: QVQLVQSGTEVKKFGSSVKVSCKASGGSFSSYTISWVRQAPGQGLEWMGSFIPILERANYAQKFQGRVTFTADKTTSTAYMELGGLRSQDTAVYYCARDLGDFGDSWGQGTLVTVSS
VL: ELVLTQPPSVSVAPGKTARITCGGNNIGSKTVHWYQQKPGQAPVVVVSDDSERPSGIPERFSGSNSGNTATLTISRVEGGDEADYYCQVWDSSNDQVVFGGGTELTVL
B15: scFv 2-108 (scFv, V domains shown)
VH: EVQLVQSGGGLVQPGGSLRLSCAASGFTFSSYWMSWVRQAPGKGLEWVANIKQDGSEKHYVDSMKGRFTISRDNGKNSLYLQMNSLRAEDTAVYYCARSPGYYFDYWGQGTLVTVSS
VL: ELVVTQPPSASGTPGQRVTISCSGSSSNIGSNYVYWYEQLPGTAPKLLIYRNNQRPSGVPDRFSGSKSGTSASLAISGLRSEDEADYYCAAWDDSLRVYVFGTGTKLTVL
B16: scFv 1-410 (scFv, V domains shown)
VH: QVQLQESGGGVVQPGGSLRLSCAASGFTFDDYTMHWVRQAPGKGLEWVSLISWDGGSTYYADSVKGRFTISRDNSKNSLYLQMNSLRTEDTALYYCAKDNGYDILTDYLDSWGQGTLVTVSS
VL: ELQMTQSPSSLSASVGDRVTITCQASQDISNYLNWYQQKPGKAPKLLIYDASNLETGVPSRFSGSGSGTDFTFTISSLQPEDIATYYCQQYDNLPLTFGQGTRLEIK
B17: scFv 2-206 (scFv, V domains shown)
VH: QVQLVQSGADVKKPGSSVKVSCKASGGTFSSYTINWVRQAPGQGLEWMGRIVPILDIANYAQKFQGRVTITADKSTSTAYMELSSLTSEDTAVYYCARDRGYDNKYGAYWGQGTLVTVSS
VL: ELVLTQPPSVSVAPGQTARITCGGNNIGSKNVHWYQQKPGQAPVLVVYDDSDRPSGIPERFSGSNSGNTATLTISRVEAGDEADYYCQVWDSSSDHWVFGGGTKVTVL
B18: scFv 2-304 (scFv, V domains shown)
VH: QVHLVQSGAEVKKPGSSVKVSCKASGGTFSSYAISWVRQAPGQGLEWMGGITPILGVTNYSQKFQGRVTVTADISTTTAYMELSSLTSEDTAVYYCARDQGYANDYGAYWGQGTLVTVSS
VL: ELVLTQPPSVSVAPGQTARITCGGNNIESKNVHWYQQKPGQAPVLVVYDDSGRPSGIPERFSGSNSGNTATLTISRVEAGDEADYYCQVWDSSSDHWVFGGGTKLTVL

The binders below were run against T1, human ADAMTS13 (human, UniProt Q76LX8 75-1427) (assay: phage ELISA on ADAMTS13-coated plates (positive: >10-fold absorbance above background)).
T1 construct: ELISA: full-length recombinant ADAMTS13 coated on plates (Technoclone); Activity assays: endogenous ADAMTS13 of normal human plasma; also called full-length human recombinant ADAMTS13; VWF-cleaving protease
T1 sequence (looked up): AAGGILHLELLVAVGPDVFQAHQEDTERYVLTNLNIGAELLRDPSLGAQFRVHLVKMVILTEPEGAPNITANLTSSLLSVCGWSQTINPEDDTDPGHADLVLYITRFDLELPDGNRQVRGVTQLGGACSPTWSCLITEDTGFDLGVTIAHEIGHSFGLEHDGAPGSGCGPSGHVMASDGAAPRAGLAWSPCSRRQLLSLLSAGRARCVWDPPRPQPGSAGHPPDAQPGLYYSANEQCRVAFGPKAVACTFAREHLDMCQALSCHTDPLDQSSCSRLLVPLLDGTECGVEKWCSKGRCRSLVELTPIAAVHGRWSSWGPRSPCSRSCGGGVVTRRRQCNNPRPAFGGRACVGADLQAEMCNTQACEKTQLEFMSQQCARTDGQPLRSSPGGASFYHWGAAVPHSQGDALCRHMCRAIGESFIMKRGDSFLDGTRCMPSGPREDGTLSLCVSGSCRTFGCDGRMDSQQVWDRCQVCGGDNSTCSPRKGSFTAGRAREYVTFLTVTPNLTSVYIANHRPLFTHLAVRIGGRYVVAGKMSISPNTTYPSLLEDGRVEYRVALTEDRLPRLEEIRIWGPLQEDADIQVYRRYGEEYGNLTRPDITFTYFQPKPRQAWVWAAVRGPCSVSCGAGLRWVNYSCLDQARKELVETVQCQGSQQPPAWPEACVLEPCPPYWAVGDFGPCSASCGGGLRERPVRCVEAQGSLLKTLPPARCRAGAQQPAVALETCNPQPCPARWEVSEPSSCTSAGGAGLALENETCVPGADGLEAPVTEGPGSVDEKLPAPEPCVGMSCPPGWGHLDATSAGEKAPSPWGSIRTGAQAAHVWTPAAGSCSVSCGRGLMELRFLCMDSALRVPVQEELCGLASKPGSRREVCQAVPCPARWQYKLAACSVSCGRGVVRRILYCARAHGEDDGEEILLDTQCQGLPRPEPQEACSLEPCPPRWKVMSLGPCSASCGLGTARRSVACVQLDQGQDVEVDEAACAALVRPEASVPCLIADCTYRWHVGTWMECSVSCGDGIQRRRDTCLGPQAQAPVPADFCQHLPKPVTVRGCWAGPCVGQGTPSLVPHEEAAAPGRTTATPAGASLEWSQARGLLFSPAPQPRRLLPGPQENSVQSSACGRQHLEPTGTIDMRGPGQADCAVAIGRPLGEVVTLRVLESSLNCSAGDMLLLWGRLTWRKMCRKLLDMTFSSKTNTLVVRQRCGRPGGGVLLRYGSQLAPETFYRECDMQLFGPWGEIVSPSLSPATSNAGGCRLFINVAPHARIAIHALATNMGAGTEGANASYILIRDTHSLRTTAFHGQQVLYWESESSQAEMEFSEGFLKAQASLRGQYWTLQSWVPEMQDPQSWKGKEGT
B1: binds.
B2: binds.
B3: binds.
B4: binds.
B5: binds.
B6: binds.
B7: binds.
B8: binds.
B9: binds.
B10: binds.
B11: binds.
B12: binds.
B13: binds.
B14: binds.
B15: binds.
B16: binds.
B17: binds.
B18: binds.
